Results taken from patent US20110165161A1, “ANTI-EPCAM ANTIBODIES THAT INDUCE APOPTOSIS OF CANCER CELLS AND METHODS USING SAME” (priority 2009, published 2011).
Residue numbers refer to the chain shown, from its start.

T1: EGFI-Cr1 Q24A (human, UniProt P16422 25-63)
T1 construct: not shown: The fused constant region of human immunoglobulin gamma 1 heavy chain (Cr1)
T1 chain: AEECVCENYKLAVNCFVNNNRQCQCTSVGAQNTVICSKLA

T2: EGFI-Cr1 E25K (human, UniProt P16422 24-63)
T2 construct: not shown: The fused constant region of human immunoglobulin gamma 1 heavy chain (Cr1)
T2 chain: T1 chain with A1Q, E2K

T3: EGFI-Cr1 E26D (human, UniProt P16422 24-63)
T3 construct: not shown: The fused constant region of human immunoglobulin gamma 1 heavy chain (Cr1)
T3 chain: T1 chain with A1Q, E3D

T4: EGFI-Cr1 A35T (human, UniProt P16422 24-63)
T4 construct: not shown: The fused constant region of human immunoglobulin gamma 1 heavy chain (Cr1)
T4 chain: T1 chain with A1Q, A12T

T5: EGFI-Cr1 N37R (human)
T5 construct: not shown: The fused constant region of human immunoglobulin gamma 1 heavy chain (Cr1)
T5 chain: T1 chain with A1Q, N14R

T6: EGFI-Cr1 F39A (human, UniProt P16422 24-63)
T6 construct: not shown: The fused constant region of human immunoglobulin gamma 1 heavy chain (Cr1)
T6 chain: T1 chain with A1Q, F16A

T7: EGFI-Cr1 V40E (human)
T7 construct: not shown: The fused constant region of human immunoglobulin gamma 1 heavy chain (Cr1)
T7 chain: T1 chain with A1Q, V17E

T8: EGFI-Cr1 N41A (human, UniProt P16422 24-63)
T8 construct: not shown: The fused constant region of human immunoglobulin gamma 1 heavy chain (Cr1)
T8 chain: T1 chain with A1Q, N18A

T9: EGFI-Cr1 N42E (human, UniProt P16422 24-63)
T9 construct: not shown: the constant region of human immunoglobulin gamma 1 heavy chain (Cr1) fused at the C-terminus
T9 chain: T1 chain with A1Q, N19E

T10: EGFI-Cr1 N43A (human, UniProt P16422 24-63)
T10 construct: not shown: the constant region of human immunoglobulin gamma 1 heavy chain (Cr1) fused at the C-terminus
T10 chain: T1 chain with A1Q, N20A

T11: EGFI-Cr1 R44G (human, UniProt P16422 24-63)
T11 construct: not shown: the constant region of human immunoglobulin gamma 1 heavy chain (Cr1) fused at the C-terminus
T11 chain: T1 chain with A1Q, R21G

T12: EGFI-Cr1 Q45A (human, UniProt P16422 24-63)
T12 construct: not shown: the constant region of human immunoglobulin gamma 1 heavy chain (Cr1) fused at the C-terminus
T12 chain: T1 chain with A1Q, Q22A

T13: EGFI-Cr1 Q47A (human, UniProt P16422 24-63)
T13 construct: not shown: the constant region of human immunoglobulin gamma 1 heavy chain (Cr1) fused at the C-terminus
T13 chain: T1 chain with A1Q, Q24A

T14: EGFI-Cr1 T49A (human, UniProt P16422 24-63)
T14 construct: not shown: the constant region of human immunoglobulin gamma 1 heavy chain (Cr1) fused at the C-terminus
T14 chain: T1 chain with A1Q, T26A

B1: murine monoclonal antibody 1G10 (antibody, mouse IgG1, V domains shown)
VH: QIQLVQSGPELKKPGETVKISCKASGYTFTNYGMNWVKQAPGKGFKWMGWINTYTGEPTYADDFKGRFAFSLETSASTAYLQINNLQNEDMATYFCARWGYDFDYWGQGTTLTVSS
VL: QIVLTQSPAIMSSSPGEKVTMTCSASSSISYMNWYQQKPGTSPKRWIYDTSKLASGVPARFSGSGSGTSYSLTISSMEAEDAATYYCHQRSSYPYTFGGGTKLEIKR
notes: Mouse IgG1, kappa, from hybridoma; also called m290-1G10
B2: murine monoclonal antibody 1F10 (antibody, mouse IgG1, V domains shown)
VH: EVKLLESGGGLVQPGGSLKLSCAASGFDFSRYWMSWVRQAPGKGLEWIGEINPDSSTMNYTPSLKDKFIISRDNAKNTLYLQMSKVRSEDTALYYCARGAYAMDYWGQGTSVTVSS
VL: QAVVTQESALTTSPGETVTLTCRSSTGAVTTSNNANWVQEKPDHLFTGLIGATNNRAPGVPARFSGSLIGDKAALTITGAQTEDEAIYFCALWYINHWVFGGGTKLTVLG
notes: Mouse IgG1, lambda 1, from hybridoma; also called m338-1F10.3

Tests used:
[1] = tested on: COLO 205 colon cancer cells; experiment: Cytotoxicity of anti-EpCAM antibodies in combination with oxaliplatin in COLO 205; assay type: cell-based, human; details: No mAb added, 24 hr
Protocol: Oxaliplatin, combined with infusional administration of 2 other chemotherapy drugs, 5-fluorouracil/leucovorin (5-FU/LV), is now considered as one of the as first-line treatments for people with advanced carcinoma of the colon or rectum (André et al. (2004) N Engl J Med 350(23):2343-2351). To test the cytotoxicity of anti-EpCAM antibodies in the presence of oxaliplatin, 1×10^5 COLO 205 cells were seeded to each well of a 96-well plate, and then 0.03, 0.3 and 3 μg/ml of anti-EpCAM or control (9E10) mAbs in combination with oxaliplatin at concentration of 0, 0.01, 0.1, and 1 μg/ml diluted in the medium were added into the cells. After a 24-hr incubation at 37° C., the cells were stained with 0.3 μl of FITC-conjugated Annexin V (Strong Biotech Corp. Cat. No. AVK250) in 50 μl Annexin V binding buffer (Strong Biotech Corp. Cat. No. AVK250) at RT for 20 min. After wash, the cells were then stained with 0.3 μl of propidium iodide in 200 μl Annexin V binding buffer. Annexin V and Propidium Iodide were used as a joint indicator for measuring cell death. The data were acquired with BD FACSCalibur based on an acquisition of 3,000-5,000 cells and analyzed with the Cell Quest software. The combined percentages of the Annexin V+/PI+, Annexin V+/PI− and Annexin V−/PI+populations were considered as dead cells.

[2] = target: T15, EGFI-Cr1 wild type (first EGF-like repeat of human EpCAM fused to the constant region of human immunoglobulin … (human, UniProt P01857-1 99-330 = IgG part)); experiment: direct ELISA, coated EGFI-Cr1 fusion, 0.1 µg/ml antibody
T15 construct: cDNA covered aa 1-63; Expressed in COS-7 cells; also called WT; EpCAM EGF-1 fusion protein WT
Protocol: (§1) A direct ELISA was used for testing the reactivity of anti-EpCAM antibodies toward variant EpCAM mutants. Briefly, purified EpCAM EGF-1 fusion proteins (WT, Q24A, E25K, E26D, A35T, N37R, F39A, V40E, N41A, N42E, N43A, R44G, Q45A, Q47A or T49A) and irrelevant control (CEA-Cr1) were pre-diluted to 0.5 μg/ml in coating buffer (8.4 g NaHCO₃, 3.4 g Na₂CO₃ in 1 L H₂O, pH 9.5) and aliquoted (100 μl/well) into 96-well plates. […] Plates were then washed 3 times with PBST followed by the addition of the enzyme substrate TMB (BD Biosciences, Cat. No. 555214). […] The optical densities at 450 nm wavelength were measured on an ELISA plate reader.

EGFI-Cr1 Q24A = target: T1, EGFI-Cr1 Q24A; experiment: as above
Protocol: as §1

EGFI-Cr1 E25K = target: T2, EGFI-Cr1 E25K; experiment: as above
Protocol: as §1

EGFI-Cr1 E26D = target: T3, EGFI-Cr1 E26D; experiment: as above
Protocol: as §1

EGFI-Cr1 A35T = target: T4, EGFI-Cr1 A35T; experiment: as above
Protocol: as §1

EGFI-Cr1 N37R = target: T5, EGFI-Cr1 N37R; experiment: as above
Protocol: as §1

EGFI-Cr1 F39A = target: T6, EGFI-Cr1 F39A; experiment: as above
Protocol: as §1

EGFI-Cr1 V40E = target: T7, EGFI-Cr1 V40E; experiment: as above
Protocol: as §1

EGFI-Cr1 N41A = target: T8, EGFI-Cr1 N41A; experiment: as above
Protocol: as §1

EGFI-Cr1 N42E = target: T9, EGFI-Cr1 N42E; experiment: as above
Protocol: as §1

EGFI-Cr1 N43A = target: T10, EGFI-Cr1 N43A; experiment: as above
Protocol: as §1

EGFI-Cr1 R44G = target: T11, EGFI-Cr1 R44G; experiment: as above
Protocol: as §1

EGFI-Cr1 Q45A = target: T12, EGFI-Cr1 Q45A; experiment: as above
Protocol: as §1

EGFI-Cr1 Q47A = target: T13, EGFI-Cr1 Q47A; experiment: as above
Protocol: as §1

EGFI-Cr1 T49A = target: T14, EGFI-Cr1 T49A; experiment: as above
Protocol: as §1

| Molecule | % of Annexin V + PI staining (untreated background subtracted) ([1]; oxaliplatin 0.01 μg/ml) [%] | % of Annexin V + PI staining (untreated background subtracted) ([1]; oxaliplatin 0.1 μg/ml) [%] | % of Annexin V + PI staining (untreated background subtracted) ([1]; oxaliplatin 1 μg/ml) [%] | relative binding activity (% of WT) [2] [%] | relative binding activity (% of WT) (EGFI-Cr1 Q24A) [%] | relative binding activity (% of WT) (EGFI-Cr1 E25K) [%] | relative binding activity (% of WT) (EGFI-Cr1 E26D) [%] | relative binding activity (% of WT) (EGFI-Cr1 A35T) [%] | relative binding activity (% of WT) (EGFI-Cr1 N37R) [%] | relative binding activity (% of WT) (EGFI-Cr1 F39A) [%] | relative binding activity (% of WT) (EGFI-Cr1 V40E) [%] | relative binding activity (% of WT) (EGFI-Cr1 N41A) [%] | relative binding activity (% of WT) (EGFI-Cr1 N42E) [%] | relative binding activity (% of WT) (EGFI-Cr1 N43A) [%] | relative binding activity (% of WT) (EGFI-Cr1 R44G) [%] | relative binding activity (% of WT) (EGFI-Cr1 Q45A) [%] | relative binding activity (% of WT) (EGFI-Cr1 Q47A) [%] | relative binding activity (% of WT) (EGFI-Cr1 T49A) [%] |
| --- | --- | --- | --- | --- | --- | --- | --- | --- | --- | --- | --- | --- | --- | --- | --- | --- | --- | --- |
| O=C1[O][Pt]2([NH][C@@H]3CCCC[C@H]3[NH]2)[O]C1=O [Oxaliplatin, reference compound] | 1 | 1 | 2 | – | – | – | – | – | – | – | – | – | – | – | – | – | – | – |
| B1 | – | – | – | 100 | 44 | 3 | 1 | 89 | 1 | 78 | 71 | 23 | 93 | 96 | 95 | 80 | 49 | 17 |
| B2 | – | – | – | 100 | 93 | 10 | 98 | 93 | 97 | 81 | 1 | 63 | 95 | 100 | 1 | 84 | 92 | 94 |
